Experimental data reported in patent publication US20250346673A1 (DUALITY BIOLOGICS SUZHOU, published 2025).

T1: human BDCA2 (human, UniProt Q8WTT0 1-213)
T1 sequence (looked up): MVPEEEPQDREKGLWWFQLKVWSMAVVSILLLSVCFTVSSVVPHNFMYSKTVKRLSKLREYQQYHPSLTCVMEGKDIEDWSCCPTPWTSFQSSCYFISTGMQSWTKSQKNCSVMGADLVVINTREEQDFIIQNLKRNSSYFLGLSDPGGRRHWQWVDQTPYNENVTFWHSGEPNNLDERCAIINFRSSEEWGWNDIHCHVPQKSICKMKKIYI

T2: Recombinant Human BDCA2 (human, UniProt Q8WTT0 45-213, limits assumed)
T2 construct: also called hBDCA2 (SPR analyte); human BDCA2 antigen
T2 sequence (looked up): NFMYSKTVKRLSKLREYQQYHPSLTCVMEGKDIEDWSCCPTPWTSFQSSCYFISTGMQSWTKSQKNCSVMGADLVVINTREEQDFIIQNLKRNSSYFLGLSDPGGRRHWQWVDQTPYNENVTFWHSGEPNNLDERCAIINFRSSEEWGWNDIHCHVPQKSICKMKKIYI

T3: cynomolgus BDCA2 (cynomolgus monkey, UniProt A0A2K5UWP4 1-212)
T3 construct: whole, on cells; also called Cyno BDCA2; cynoBDCA2
T3 sequence: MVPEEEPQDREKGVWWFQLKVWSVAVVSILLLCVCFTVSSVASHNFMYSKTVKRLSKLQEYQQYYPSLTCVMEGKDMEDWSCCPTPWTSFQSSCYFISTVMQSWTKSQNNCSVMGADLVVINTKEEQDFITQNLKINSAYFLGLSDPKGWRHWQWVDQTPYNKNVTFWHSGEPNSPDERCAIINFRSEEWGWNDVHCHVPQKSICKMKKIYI

B1: Hu033-02 (antibody, IgG1, V domains shown)
VH: EVQLVESGGGLVKPGGSLRLSCAASGFTFSSYGMSWVRQAPGKGLEWVSTISSGDSYTYYPDSVKGRFTISRDNAKNSLYLQMNSLRAEDTAVYYCARQIYYDYAYYFDFWGQGTTVTVSS
VL: DIVLTQSPASLAVSPGQRATITCRASESVSFRTSHLMHWYQQKPGQPPKLLIYGASNLESGVPARFSGSGSETDFTLTINPVEAEDTANYYCQQSIEDPPTFGGGTKVEIK
notes: Humanized IgG1; also called Hu033-02(BM2)
B2: Hu033-04 (antibody, IgG1, V domains shown)
VH: EVQLVESGGGLVKPGGSLRLSCAASGFTFSSYGMSWVRQAPGKGLEWVSTISSGDSYTYYPDSVKGRFTISRDNAKNSLYLQMNSLRAEDTAVYYCARQIYYDYAYYFDFWGQGTTVTVSS
VL: DIVMTQSPDSLAVSLGERATINCRASESVSFRTSHLMHWYQQKPGQPPKLLIYGASNLESGVPDRFSGSGSGTDFTLTISSLQAEDVAVYYCQQSIEDPPTFGGGTKVEIK
notes: Humanized IgG1; also called Hu033-04(BM0)
B3: Hu033-06 (antibody, IgG1, V domains shown)
VH: EVQLVESGGGLVKPGGSLRLSCAASGFTFSSYGMSWVRQAPGKGLEWVSTISSGDSYTYYPDSVKGRFTISRDNAKNSLYLQMNSLRAEDTAVYYCARQIYYDYAYYFDFWGQGTTVTVSS
VL: DIVLTQSPDSLAVSLGERATINCRASESVSFRTSHLMHWYQQKPGQPPKLLIYGASNLESGVPDRFSGSGSETDFTLTISPLQAEDVAVYFCQQSIEDPPTFGGGTKVEIK
notes: Humanized IgG1; also called Hu033-06(BM3)
B4: Hu033-12 (antibody, IgG1, V domains shown)
VH: EVQLVESGGGLVKPGGSLRLSCAASGFTFRSYGMSWVRQAPGKRLEWVSTISSGDSYTYYPDSVKGRFTISRDNAKNSLYLQMNSLRAEDTAVYYCARQIYYDYAYYFDFWGQGTTVTVSS
VL: DIVMTQSPDSLAVSLGERATINCRASESVSFRTSHLMHWYQQKPGQPPKLLIYGASNLESGVPDRFSGSGSGTDFTLTISSLQAEDVAVYYCQQSIEDPPTFGGGTKVEIK
notes: Humanized IgG1; also called Hu033-12(BM2)
B5: Hu033-13 (antibody, IgG1, V domains shown)
VH: EVQLVESGGGLVKPGGSLRLSCAASGFTFRSYGMSWVRQAPGKRLEWVSTISSGDSYTYYPDSVKGRFTISRDNAKNSLYLQMNSLRAEDTAVYYCARQIYYDYAYYFDFWGQGTTVTVSS
VL: DIVLTQSPDSLAVSLGERATINCRASESVSFRTSHLMHWYQQKPGQPPKLLIYGASNLESGVPDRFSGSGSGTDFTLTISSLQAEDVAVYFCQQSIEDPPTFGGGTKVEIK
notes: Humanized IgG1; also called Hu033-13(BM4)
B6: Hu033-16 (antibody, IgG1, V domains shown)
VH: EVQLVESGGGLVKPGGSLRLSCAASGFTFRSYGMSWVRQAPGKRLEWVSTISSGDSYTYYPDSVKGRFTISRDNAKNSLYLQMNSLRAEDTAVYYCARQIYYDYAYYFDFWGQGTTVTVSS
VL: EIVLTQSPATLSLSPGERATLSCRASESVSFRTSHLMHWYQQKPGQAPRLLIYGASNLESGIPARFSGSGSETDFTLTISRLEPEDFAVYFCQQSIEDPPTFGGGTKVEIK
notes: Humanized IgG1; also called Hu033-16(BM4)
B7: Hu033-08 (antibody, IgG1, V domains shown)
VH: EVQLVESGGGLVKPGGSLRLSCAASGFTFSSYGMSWVRQAPGKGLEWVSTISSGDSYTYYPDSVKGRFTISRDNAKNSLYLQMNSLRAEDTAVYYCARQIYYDYAYYFDFWGQGTTVTVSS
VL: EIVLTQSPATLSLSPGERATLSCRASESVSFRTSHLMHWYQQKPGQAPRLLIYGASNLESGIPARFSGSGSETDFTLTISRLEPEDFAVYFCQQSIEDPPTFGGGTKVEIK
notes: Humanized IgG1; also called Hu033-08(BM2)
B8: Hu033-15 (antibody, IgG1, V domains shown)
VH: EVQLVESGGGLVKPGGSLRLSCAASGFTFRSYGMSWVRQAPGKRLEWVSTISSGDSYTYYPDSVKGRFTISRDNAKNSLYLQMNSLRAEDTAVYYCARQIYYDYAYYFDFWGQGTTVTVSS
VL: EIVLTQSPATLSLSPGERATLSCRASESVSFRTSHLMHWYQQKPGQAPRLLIYGASNLESGIPARFSGSGSGTDFTLTISRLEPEDFAVYYCQQSIEDPPTFGGGTKVEIK
notes: Humanized IgG1; also called Hu033-15(BM2)
B9: Hu033-23 (antibody, IgG1, V domains shown)
VH: EVQLVESGGGLVKPGGSLRLSCAASGFTFRSYGMSWVRQAPGKRLEWVSTISSGDSYTYYPDSVKGRFTISRDNAKNSLYLQMNSLKAEDTAVYYCARQIYYDYAYYFDFWGQGTTVTVSS
VL: EIVLTQSPATLSLSPGERATLSCRASESVSFRTSHLMHWYQQKPGQAPRLLIYGASNLESGIPARFSGSGSGTDFTLTISRLEPEDFAVYYCQQSIEDPPTFGGGTKVEIK
notes: Humanized IgG1; also called Hu033-23(BM3)
B10: Hu033-10 (antibody, IgG1, V domains shown)
VH: EVQLVESGGGLVKPGGSLRLSCAASGFTFRSYGMSWVRQAPGKRLEWVSTISSGDSYTYYPDSVKGRFTISRDNAKNSLYLQMNSLRAEDTAVYYCARQIYYDYAYYFDFWGQGTTVTVSS
VL: DIVLTQSPASLAVSPGQRATITCRASESVSFRTSHLMHWYQQKPGQPPKLLIYGASNLESGVPARFSGSGSETDFTLTINPVEAEDTANYYCQQSIEDPPTFGGGTKVEIK
notes: Humanized IgG1; also called Hu033-10(BM4)

Key:
human BDCA2 [1] = molecular target: T1, human BDCA2; test: cell-based or functional assay
human BDCA2 [2] = molecular target: T1, human BDCA2; test: FACS, CHOK1-humanBDCA2 cells
Protocol: (§1) The cells were recovered and resuspended to 2×10⁶/mL with FACS buffer (PBS+2% FBS). The resuspended cells were added to 3799 cell plates at 100 μL/well, and the supernatant was discarded after centrifugation at 300 g. […] The cells were incubated at 4° C. for 1 h. The incubated cells were centrifuged at […] for 5 min and washed twice with FACS buffer. 100 μL Goat anti-Human IgG (H+L) Cross-Adsorbed Secondary Antibody, Alexa Fluor 488 (Sigma, A11013; 1:1000) secondary antibody was added, washed twice with FACS buffer after incubation at 4° C. for 1 h. The cells were resuspended with PBS, then the fluorescence signal of antibodies bound to cell surface was analyzed with FACS (BD FACS CantoTM II) instrument and curves were fitted with GraphPad Prism6 to calculate EC₅₀ values for antibodies binding to BDCA2 antigen.

Recombinant Human BDCA2 = molecular target: T2, Recombinant Human BDCA2; test: SPR (BIAcore), antibody captured by anti-human IgG (Fc), hBDCA2 as analyte, 1:1 model
Protocol: Then 1 M ethanolamine was injected at 10 μL/min flow rate for 420 seconds, and the excess active carboxyl groups on chip were blocked. The humanized antibodies were injected into a detection channel flow cell at flow rate of 10 μL/min for 60 s for capture after diluting to 1 μg/mL using running buffer. […] The sample hBDCA2 to be tested of each concentration gradient was injected into the detection channel at 30 μL/min flow rate, two samples at 0 concentration were used to remove background signal. The binding and dissociation times between antigen and antibody were 180 and 400 sec, respectively. An analysis of data was performed using Biacore Insight Evaluation Software (Version 2.0. 15.12933). A 1:1 binding model was selected for curve fitting and kinetic parameters were calculated after subtraction of signal of the reference channel (flow cell 1) and at 0 concentration.

cynomolgus BDCA2 = molecular target: T3, cynomolgus BDCA2; test: FACS, 293F-cynoBDCA2 cells
Protocol: as §1

| Binder | EC50 (nM), inhibition of CpG-A stimulated IFNα release from human PBMC (human BDCA2 [1]) [nM] | EC50 (human BDCA2 [2]) [pM] | Kd (Recombinant Human BDCA2) [pM] | koff (Recombinant Human BDCA2) [s⁻¹] | kon (Recombinant Human BDCA2) [M⁻¹ s⁻¹] | EC50 (cynomolgus BDCA2) [pM] |
| --- | --- | --- | --- | --- | --- | --- |
| B1 | 0.02 | 440 | 239 | 0.000169 | 707000 | 1200 |
| B2 | 0.03 | 610 | 323 | 0.000193 | 598000 | 1330 |
| B3 | 0.02 | 620 | 170 | 0.000125 | 733000 | 1410 |
| B4 | 0.02 | 450 | 283 | 0.000149 | 527000 | 1070 |
| B5 | 0.01 | 680 | 338 | 0.000153 | 454000 | 1130 |
| B6 | 0.01 | 630 | 191 | 0.000108 | 569000 | 1370 |
| B7 | 0.02 | 620 | 229 | 0.000169 | 740000 | 1530 |
| B8 | 0.02 | 760 | 467 | 0.000227 | 487000 | 1270 |
| B9 | 0.03 | 790 | 444 | 0.000207 | 466000 | 1240 |
| B10 | 0.01 | 510 | 200 | 0.000118 | 589000 | 1270 |
